Experimental data: paper PMC4728290

Biological target: human insulin receptor fused with Renilla luciferase 8 (human) (UniProt P06213)

bovine insulin (ligand)
EC50 of insulin for the insulin-induced BRET increase between hIR–Rluc8 and Grb2–Venus (m1 + m3), live HEK293 cells, insulin 0.001-10,000 nM: 4.4 nM | EC50 of insulin for the insulin-induced BRET increase between hIR–Rluc8 and IRS1–YFP (m1 + m2), live HEK293 cells, insulin 0.001-10,000 nM: 2.2 nM
